B1: Myotubularin-related protein 9 (Homo sapiens), Q96QG7 (parent)
chain: MEFAELIKTPRVDNVVLHRPFYPAVEGTLCLTGHHLILSSRQDNTEELWLLHSNIDAIDKRFVGSLGTIIIKCKDFRIIQLDIPGMEECLNIASSIEALSTLDSITLMYPFFYRPMFEVIEDGWHSFLPEQEFELYSSATSEWRLSYVNKEFAVCPSYPPIVTVPKSIDDEALRKVATFRHGGRFPVLSYYHKKNGMVIMRSGQPLTGTNGRRCKEDEKLINATLRAGKRGYIIDTRSLNVAQQTRAKGGGFEQEAHYPQWRRIHKSIERYHILQESLIKLVEACNDQTHNMDRWLSKLEASNWLTHIKEILTTACLAAQCIDREGASILIHGTEGTDSTLQVTSLAQIILEPRSRTIRGFEALIEREWLQAGHPFQQRCAQSAYCNTKQKWEAPVFLLFLDCVWQILRQFPCSFEFNENFLIMLFEHAYASQFGTFLGNNESERCKLKLQQKTMSLWSWVNQPSELSKFTNPLFEANNLVIWPSVAPQSLPLWEGIFLRWNRSSKYLDEAYEEMVNIIEYNKELQAKVNILRRQLAELETEDGMQESP
partner: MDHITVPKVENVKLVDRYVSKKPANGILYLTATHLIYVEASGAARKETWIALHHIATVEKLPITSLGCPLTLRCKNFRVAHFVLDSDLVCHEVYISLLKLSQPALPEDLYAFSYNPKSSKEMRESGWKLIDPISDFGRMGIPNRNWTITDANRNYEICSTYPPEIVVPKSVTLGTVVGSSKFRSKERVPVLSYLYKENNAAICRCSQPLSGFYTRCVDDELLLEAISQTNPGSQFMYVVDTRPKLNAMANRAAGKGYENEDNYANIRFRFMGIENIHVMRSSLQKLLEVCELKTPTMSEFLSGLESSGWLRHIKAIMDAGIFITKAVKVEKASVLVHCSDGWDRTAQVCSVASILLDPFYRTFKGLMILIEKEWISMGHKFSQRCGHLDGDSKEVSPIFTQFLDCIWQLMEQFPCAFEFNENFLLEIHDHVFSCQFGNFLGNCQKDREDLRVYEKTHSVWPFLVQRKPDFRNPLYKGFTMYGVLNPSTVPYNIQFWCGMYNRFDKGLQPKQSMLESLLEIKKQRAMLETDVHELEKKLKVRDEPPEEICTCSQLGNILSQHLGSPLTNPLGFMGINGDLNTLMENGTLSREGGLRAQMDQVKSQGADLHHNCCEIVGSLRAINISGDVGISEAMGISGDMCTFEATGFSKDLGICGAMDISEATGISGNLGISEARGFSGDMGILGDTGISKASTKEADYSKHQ
B2: Centrosomal protein POC5 (Homo sapiens), Q8NA72 (parent)
chain: MSSDEEKYSLPVVQNDSSRGSSVSSNLQEEYEELLHYAIVTPNIEPCASQSSHPKGELVPDVRISTIHDILHSQGNNSEVRETAIEVGKGCDFHISSHSKTDESSPVLSPRKPSHPVMDFFSSHLLADSSSPATNSSHTDAHEILVSDFLVSDENLQKMENVLDLWSSGLKTNIISELSKWRLNFIDWHRMEMRKEKEKHAAHLKQLCNQINELKELQKTFEISIGRKDEVISSLSHAIGKQKEKIELMRTFFHWRIGHVRARQDVYEGKLADQYYQRTLLKKVWKVWRSVVQKQWKDVVERACQARAEEVCIQISNDYEAKVAMLSGALENAKAEIQRMQHEKEHFEDSMKKAFMRGVCALNLEAMTIFQNRNDAGIDSTNNKKEEYGPGVQGKEHSAHLDPSAPPMPLPVTSPLLPSPPAAVGGASATAVPSAASMTSTRAASASSVHVPVSALGAGSAATAASEEMYVPRVVTSAQQKAGRTITARITGRCDFASKNRISSSLAIMGVSPPMSSVVVEKHHPVTVQTIPQATAAKYPRTIHPESSTSASRSLGTRSAHTQSLTSVHSIKVVD
B3: Coiled-coil alpha-helical rod protein 1 (Homo sapiens), Q8TD31 (parent)
chain: MFPPSGSTGLIPPSHFQARPLSTLPRMAPTWLSDIPLVQPPGHQDVSERRLDTQRPQVTMWERDVSSDRQEPGRRGRSWGLEGSQALSQQAEVIVRQLQELRRLEEEVRLLRETSLQQKMRLEAQAMELEALARAEKAGRAEAEGLRAALAGAEVVRKNLEEGSQRELEEVQRLHQEQLSSLTQAHEEALSSLTSKAEGLEKSLSSLETRRAGEAKELAEAQREAELLRKQLSKTQEDLEAQVTLVENLRKYVGEQVPSEVHSQTWELERQKLLETMQHLQEDRDSLHATAELLQVRVQSLTHILALQEEELTRKVQPSDSLEPEFTRKCQSLLNRWREKVFALMVQLKAQELEHSDSVKQLKGQVASLQEKVTSQSQEQAILQRSLQDKAAEVEVERMGAKGLQLELSRAQEARRRWQQQTASAEEQLRLVVNAVSSSQIWLETTMAKVEGAAAQLPSLNNRLSYAVRKVHTIRGLIARKLALAQLRQESCPLPPPVTDVSLELQQLREERNRLDAELQLSARLIQQEVGRAREQGEAERQQLSKVAQQLEQELQQTQESLASLGLQLEVARQGQQESTEEAASLRQELTQQQELYGQALQEKVAEVETRLREQLSDTERRLNEARREHAKAVVSLRQIQRRAAQEKERSQELRRLQEEARKEEGQRLARRLQELERDKNLMLATLQQEGLLSRYKQQRLLTVLPSLLDKKKSVVSSPRPPECSASAPVAAAVPTRESIKGSLSVLLDDLQDLSEAISKEEAVCQGDNLDRCSSSNPQMSS
partner: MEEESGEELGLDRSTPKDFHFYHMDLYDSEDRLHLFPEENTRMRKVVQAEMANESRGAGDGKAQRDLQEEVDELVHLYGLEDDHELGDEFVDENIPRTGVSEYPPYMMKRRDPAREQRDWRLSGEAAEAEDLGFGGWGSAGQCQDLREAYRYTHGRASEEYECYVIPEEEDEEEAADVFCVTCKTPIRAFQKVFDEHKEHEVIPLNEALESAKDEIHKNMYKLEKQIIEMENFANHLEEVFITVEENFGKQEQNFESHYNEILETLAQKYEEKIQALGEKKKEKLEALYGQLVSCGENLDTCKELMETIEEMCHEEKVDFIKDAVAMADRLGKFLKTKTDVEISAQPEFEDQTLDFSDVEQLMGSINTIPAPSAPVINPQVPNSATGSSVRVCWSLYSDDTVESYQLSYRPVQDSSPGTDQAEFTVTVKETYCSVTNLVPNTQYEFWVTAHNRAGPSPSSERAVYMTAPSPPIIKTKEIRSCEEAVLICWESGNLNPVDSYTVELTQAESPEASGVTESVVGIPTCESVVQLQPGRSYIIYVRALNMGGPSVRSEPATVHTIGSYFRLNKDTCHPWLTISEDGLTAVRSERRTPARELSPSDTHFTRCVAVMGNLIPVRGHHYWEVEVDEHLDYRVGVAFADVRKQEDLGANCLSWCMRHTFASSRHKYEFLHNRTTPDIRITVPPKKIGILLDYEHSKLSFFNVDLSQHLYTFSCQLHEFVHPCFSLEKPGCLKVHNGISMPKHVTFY
B4: TBC1 domain family member 22B (Homo sapiens), Q9NU19 (parent)
chain: MAAENSKQFWKRSAKLPGSIQPVYGAQHPPLDPRLTKNFIKERSKVNTVPLKNKKASSFHEFARNTSDAWDIGDDEEEDFSSPSFQTLNSKVALATAAQVLENHSKLRVKPERSQSTTSDVPANYKVIKSSSDAQLSRNSSDTCLRNPLHKQQSLPLRPIIPLVARISDQNASGAPPMTVREKTRLEKFRQLLSSQNTDLDELRKCSWPGVPREVRPITWRLLSGYLPANTERRKLTLQRKREEYFGFIEQYYDSRNEEHHQDTYRQIHIDIPRTNPLIPLFQQPLVQEIFERILFIWAIRHPASGYVQGINDLVTPFFVVFLSEYVEEDVENFDVTNLSQDMLRSIEADSFWCMSKLLDGIQDNYTFAQPGIQKKVKALEELVSRIDEQVHNHFRRYEVEYLQFAFRWMNNLLMRELPLRCTIRLWDTYQSEPEGFSHFHLYVCAAFLIKWRKEILDEEDFQGLLMLLQNLPTIHWGNEEIGLLLAEAYRLKYMFADAPNHYRR
partner: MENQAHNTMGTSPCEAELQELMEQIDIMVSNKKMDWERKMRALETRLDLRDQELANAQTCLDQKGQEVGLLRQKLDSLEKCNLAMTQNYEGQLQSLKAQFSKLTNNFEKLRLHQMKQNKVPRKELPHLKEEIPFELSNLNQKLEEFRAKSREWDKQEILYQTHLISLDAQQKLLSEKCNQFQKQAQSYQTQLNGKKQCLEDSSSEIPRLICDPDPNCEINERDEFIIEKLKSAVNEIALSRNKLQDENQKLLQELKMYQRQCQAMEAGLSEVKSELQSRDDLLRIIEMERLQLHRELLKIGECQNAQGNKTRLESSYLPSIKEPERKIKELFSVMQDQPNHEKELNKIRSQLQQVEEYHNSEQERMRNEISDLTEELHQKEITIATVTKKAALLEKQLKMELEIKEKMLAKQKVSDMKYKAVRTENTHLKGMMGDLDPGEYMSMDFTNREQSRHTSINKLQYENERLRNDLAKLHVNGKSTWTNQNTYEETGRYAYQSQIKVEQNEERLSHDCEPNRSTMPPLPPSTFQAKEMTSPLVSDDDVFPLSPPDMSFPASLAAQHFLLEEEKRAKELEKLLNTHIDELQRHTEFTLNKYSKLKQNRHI

One assay covers variants of B1. The following applies: with mtmr8_human MTMR8, Q96EF0.
For R359S, the “effect of a mutation on the interaction” value is “with no effect”.

The next assay covers variants of B2. The conditions noted are these: with cetn1_human CETN1, Q12798.
Sequence of cetn1_human CETN1, Q12798 (Q12798 whole entry): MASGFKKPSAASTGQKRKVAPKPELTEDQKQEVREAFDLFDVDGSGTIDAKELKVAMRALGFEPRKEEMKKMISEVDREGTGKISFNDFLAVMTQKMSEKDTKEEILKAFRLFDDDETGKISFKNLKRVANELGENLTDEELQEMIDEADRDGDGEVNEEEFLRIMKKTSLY
As to M469T, the “effect of a mutation on the interaction” value was “with no effect”.

Variants of B2 are the subject of the next assay. The conditions noted are these: with cetn2_human CETN2, P41208.
Sequence of cetn2_human CETN2, P41208 (P41208 whole entry): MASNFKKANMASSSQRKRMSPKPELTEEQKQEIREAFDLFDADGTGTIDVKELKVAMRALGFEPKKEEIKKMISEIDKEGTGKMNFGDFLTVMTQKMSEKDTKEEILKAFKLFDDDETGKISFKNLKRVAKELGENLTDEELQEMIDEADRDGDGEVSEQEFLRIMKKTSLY
On to M469T, for which the “effect of a mutation on the interaction” value was “with no effect”.

The variants in a further assay derive from B3. The following applies: with fsd2_human FSD2, A1L4K1.
In the case of W337R, the “effect of a mutation on the interaction” value is given as “with no effect”.

Variants of B4 are the subject of a further assay. The conditions noted are these: with deup1_human DEUP1, Q05D60.
In the case of A349T, the “effect of a mutation on the interaction” value was “disrupting interaction strength”.

These data come from IntAct's records for PubMed 29892012.
